Measurements: article doi:10.1101/2024.11.05.622117 (bioRxiv, 2024)

Target: the molecule itself

Protein: IRIDIRIDIRG [Peptide IRIDIRIDIRG (SID)]
- binding result: binds
